Laboratory results published in patent US20240117030A1 (Pfizer, published 2024).

B1: IL13433-1270 (other)
heavy: EVQLVESGGGLVQPGGSLRLSCAASGFTFSSYWMYWVRQAPGKGLEWVAAITPNAGEDYYPESVKGRFTISRDNAKNSLYLQMNSLRAEDTAVYYCARGQYYYTKYSLGYWGQGTLVTVSSASTKGPSVFPKAPSSKSTSGGTAALGCLVKDYFPEPVTVSWNSGALTSGVHTFPAVLQSSGLYSLSSSVTVPSSSLGTQTYICNVNHKPSNTKVDKKVEPKSCDKTHTCPPCPAPEAAGAPSVFLFPPKPKDTLMISRTPEVTCVVVDVSHEDPEVKFNWYVDGVEVHNAKTKPREEQYNSTYRVVSVLTVLHQDWLNGKEYKCKVSNKALPAPIEKTISKAKGQPREPQVCTLPPSREEMTKNQVSLWCLVKGFYPSDIAVEWESNGQPENNYKTTPPVLDSDGSFFLYSKLTVDKSRWQQGNVFSCSVLHEALHSHYTQKSLSLSPGK
chain 1: DIQMTQSPSSLSASVGDRVTITCKASESVDHFGWSLVHWYQQKPGKAPKLLIYRASNLESGVPSRFSGSGSGTDFTLTISSLQPEDFATYYCQQSNEDPWTFGGGTKVEIKRTVAAPSVFIFPPSDEQLKSGTASVVCLLNNFYPREAKVQWKVDNALQSGNSQESVTEQDSKDSTYSLSSTLTLSKADYEKHKVYACEVTHQGLSSPVTKSFNRGECGGGGSEVTLRESGPALVKPTQTLTLTCTFSGFSLSNFGEGLSWIRQPPGKGLEWLAHIYWDDDKRYNPSLKSRLTISKDTSRNQVVLTMTNMDPVDTATYYCARRETVFYWYFDVWGQGTTVTVSSASTKGPSVFPEAPSSKSTSGGTAALGCLVKDYFPEPVTVSWNSGALTSGVHTFPAVLQSSGLYSLGSVVTVPSSSLGTQTYICNVNHKPSNTKVDKKVEPKSCDKTHTCPPCPAPEAAGAPSVFLFPPKPKDTLMISRTPEVTCVVVDVSHEDPEVKFNWYVDGVEVHNAKTKPREEQYNSTYRVVSVLTVLHQDWLNGKEYKCKVSNKALPAPIEKTISKAKGQPREPQVYTLPPCREEMTKNQVSLSCAVKGFYPSDIAVEWESNGQPENNYKTTPPVLDSDGSFFLVSKLTVDKSRWQQGNVFSCSVLHEALHSHYTQKSLSLSPGK
light 1: DIQMTQSPSSLSASVGDRVTITCRASQPIHNHLDWYQQKPGKAPKLLIYFGKNLQEGVPSRFSGSGSGTDFTLTISSLQPEDFATYYCFQYKKGWSFGGGTKVEIKRTVAAPSVFIFPPSDEQLKSGTASVSCLLNNFYPREAKVQWKVDNALQSGNSQESVTEQDSKDSTYSLDSTLTLSKADYEKHKVYACEVTHQGLSSPVTKSFNRGEC
light 2: DIQMTQSPSSLSASVGDRVTITCRASQSVDEEGDSYMNWYQQKPGKAPKLLIYAASNLESGVPSRFSGSGSGTDFTLTISSLQPEDFATYYCQQSNKDPPTFGGGTKVEIKRTVAAPSVFIFPPSDEQLKSGTASVSCLLNNFYPREAKVQWKVDNALQSGNSQESVTEQDSKDSTYSLKSTLTLSKADYEKHKVYACEVTHQGLSSPVTKSFNRGEC
chain 2: EVQLVESGGGLVQPGGSLRLSCAASGFTFSSYAMSWVRQAPGKGLEWVASISSGDTTYYPDSVKGRFTISRDNAKNSLYLQMNSLRAEDTAVYYCARNEGYYFGLTLWGQGTLVTVSSASTKGPSVFPLAPSSKSTSGGTAALGCLVKDYFPEPVTVSWNSGALTSGVHTFPAVLQSSGLYSLSSVVTVPSSSLGTQTYICNVNHKPSNTKVDKKVEPKSC
B2: IL13433-0005 (other)
heavy: EVTLRESGPALVKPTQTLTLTCTFSGFSLSNFGEGLSWIRQPPGKGLEWLAHIYWDDDKRYNPSLKSRLTISKDTSRNQVVLTMTNMDPVDTATYYCARRETVFYWYFDVWGQGTTVTVSSASTKGPSVFPEAPSSKSTSGGTAALGCLVKDYFPEPVTVSWNSGALTSGVHTFPAVLQSSGLYSLGSVVTVPSSSLGTQTYICNVNHKPSNTKVDKKVEPKSCDKTHTCPPCPAPEAAGAPSVFLFPPKPKDTLMISRTPEVTCVVVDVSHEDPEVKFNWYVDGVEVHNAKTKPREEQYNSTYRVVSVLTVLHQDWLNGKEYKCKVSNKALPAPIEKTISKAKGQPREPQVYTLPPCREEMTKNQVSLSCAVKGFYPSDIAVEWESNGQPENNYKTTPPVLDSDGSFFLVSKLTVDKSRWQQGNVFSCSVMHEALHNHYTQKSLSLSPGK
chain 1: DIQMTQSPSSLSASVGDRVTITCKASQNINKHLDWYQQKPGKAPKLLIYFTNNLQTGVPSRFSGSGSGTDFTLTISSLQPEDFATYYCFQYNQGWTFGGGTKVEIKRTVAAPSVFIFPPSDEQLKSGTASVVCLLNNFYPREAKVQWKVDNALQSGNSQESVTEQDSKDSTYSLSSTLTLSKADYEKHKVYACEVTHQGLSSPVTKSFNRGECGGGGSEVQLVESGGGLVQPGGSLRLSCAASGFTFSSYAMSWVRQAPGKGLEWVASISSGDTTYYPDSVKGRFTISRDNAKNSLYLQMNSLRAEDTAVYYCARNEGYYFGLTLWGQGTLVTVSSASTKGPSVFPKAPSSKSTSGGTAALGCLVKDYFPEPVTVSWNSGALTSGVHTFPAVLQSSGLYSLSSSVTVPSSSLGTQTYICNVNHKPSNTKVDKKVEPKSCDKTHTCPPCPAPEAAGAPSVFLFPPKPKDTLMISRTPEVTCVVVDVSHEDPEVKFNWYVDGVEVHNAKTKPREEQYNSTYRVVSVLTVLHQDWLNGKEYKCKVSNKALPAPIEKTISKAKGQPREPQVCTLPPSREEMTKNQVSLWCLVKGFYPSDIAVEWESNGQPENNYKTTPPVLDSDGSFFLYSKLTVDKSRWQQGNVFSCSVMHEALHNHYTQKSLSLSPGK
light 1: DIQMTQSPSSLSASVGDRVTITCKASQSVDEDGDSYMNWYQQKPGKAPKLLIYAASNLESGVPSRFSGSGSGTDFTLTISSLQPEDFATYYCQQSNEDPPTFGGGTKVEIKRTVAAPSVFIFPPSDEQLKSGTASVSCLLNNFYPREAKVQWKVDNALQSGNSQESVTEQDSKDSTYSLKSTLTLSKADYEKHKVYACEVTHQGLSSPVTKSFNRGEC
light 2: DIQMTQSPSSLSASVGDRVTITCKASESVDHFGWSLVHWYQQKPGKAPKLLIYRASNLESGVPSRFSGSGSGTDFTLTISSLQPEDFATYYCQQSNEDPWTFGGGTKVEIKRTVAAPSVFIFPPSDEQLKSGTASVSCLLNNFYPREAKVQWKVDNALQSGNSQESVTEQDSKDSTYSLDSTLTLSKADYEKHKVYACEVTHQGLSSPVTKSFNRGEC
chain 2: EVQLVESGGGLVQPGGSLRLSCAASGFTFSSYWMYWVRQAPGKGLEWVAAITPNAGEDYYPESVKGRFTISRDNAKNSLYLQMNSLRAEDTAVYYCARGHYYYTSYSLGYWGQGTLVTVSSASTKGPSVFPLAPSSKSTSGGTAALGCLVKDYFPEPVTVSWNSGALTSGVHTFPAVLQSSGLYSLSSVVTVPSSSLGTQTYICNVNHKPSNTKVDKKVEPKSC
B3: IL13433-0607 (other)
heavy: EVQLVESGGGLVQPGGSLRLSCAASGFTFSSYAMSWVRQAPGKGLEWVASISTGDTTYYPDSVKGRFTISRDNAKNSLYLQMNSLRAEDTAVYYCARNEGYYFGLTQWGRGTLVTVSSASTKGPSVFPKAPSSKSTSGGTAALGCLVKDYFPEPVTVSWNSGALTSGVHTFPAVLQSSGLYSLSSSVTVPSSSLGTQTYICNVNHKPSNTKVDKKVEPKSCDKTHTCPPCPAPEAAGAPSVFLFPPKPKDTLMISRTPEVTCVVVDVSHEDPEVKFNWYVDGVEVHNAKTKPREEQYNSTYRVVSVLTVLHQDWLNGKEYKCKVSNKALPAPIEKTISKAKGQPREPQVCTLPPSREEMTKNQVSLWCLVKGFYPSDIAVEWESNGQPENNYKTTPPVLDSDGSFFLYSKLTVDKSRWQQGNVFSCSVLHEALHSHYTQKSLSLSPGK
chain 1: DIQMTQSPSSLSASVGDRVTITCRASQPISKHLDWYQQKPGKAPKLLIYFTNNLQTGVPSRFSGSGSGTDFTLTISSLQPEDFATYYCFQYNQGWTFGGGTKVEIKRTVAAPSVFIFPPSDEQLKSGTASVVCLLNNFYPREAKVQWKVDNALQSGNSQESVTEQDSKDSTYSLSSTLTLSKADYEKHKVYACEVTHQGLSSPVTKSFNRGECGGGGSEVTLRESGPALVKPTQTLTLTCTFSGFSLSNFGEGLSWIRQPPGKGLEWLAHIYWDDDKRYSTSLKTRLTISKDTSRNQVVLTMTNMDPVDTATYYCARRETVFYWYFDVWGQGTTVTVSSASTKGPSVFPEAPSSKSTSGGTAALGCLVKDYFPEPVTVSWNSGALTSGVHTFPAVLQSSGLYSLGSVVTVPSSSLGTQTYICNVNHKPSNTKVDKKVEPKSCDKTHTCPPCPAPEAAGAPSVFLFPPKPKDTLMISRTPEVTCVVVDVSHEDPEVKFNWYVDGVEVHNAKTKPREEQYNSTYRVVSVLTVLHQDWLNGKEYKCKVSNKALPAPIEKTISKAKGQPREPQVYTLPPCREEMTKNQVSLSCAVKGFYPSDIAVEWESNGQPENNYKTTPPVLDSDGSFFLVSKLTVDKSRWQQGNVFSCSVLHEALHSHYTQKSLSLSPGK
light 1: DIQMTQSPSSLSASVGDRVTITCRASESVDHFGWSLVHWYQQKPGKAPKLLIYRADSLETGVPSRFSGSGSGTDFTLTISSLQPEDFATYYCQQSNEDPWTFGGGTKVEIKRTVAAPSVFIFPPSDEQLKSGTASVSCLLNNFYPREAKVQWKVDNALQSGNSQESVTEQDSKDSTYSLDSTLTLSKADYEKHKVYACEVTHQGLSSPVTKSFNRGEC
light 2: DIQMTQSPSSLSASVGDRVTITCRASQSVDEEGDSYMNWYQQKPGKAPKLLIYAASNLESGVPSRFSGSGSGTDFTLTISSLQPEDFATYYCQQSHKDPPTFGGGTKVEIKRTVAAPSVFIFPPSDEQLKSGTASVSCLLNNFYPREAKVQWKVDNALQSGNSQESVTEQDSKDSTYSLKSTLTLSKADYEKHKVYACEVTHQGLSSPVTKSFNRGEC
chain 2: EVQLVESGGGLVQPGGSLRLSCAASGFTFSSYWMYWVRQAPGKGLEWVAAITPNAGEDYYPESVKGRFTISRDNAKNSLYLQMNSLRAEDTAVYYCARGHYYYTSYSLGYWGQGTLVTVSSASTKGPSVFPLAPSSKSTSGGTAALGCLVKDYFPEPVTVSWNSGALTSGVHTFPAVLQSSGLYSLSSVVTVPSSSLGTQTYICNVNHKPSNTKVDKKVEPKSC

Legend:
Assay in all cases: cell-based or functional assay
[1] = target: T1, human IL-4 (human, UniProt P05112 25-153)
T1 sequence (looked up): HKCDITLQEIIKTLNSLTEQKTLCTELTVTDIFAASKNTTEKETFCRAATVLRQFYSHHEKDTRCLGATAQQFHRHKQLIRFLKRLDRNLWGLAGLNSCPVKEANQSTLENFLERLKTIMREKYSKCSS

[2] = target: T2, recombinant human IL-33 (wild type, Ser112-Thr270) (human, UniProt O95760 112-270)
T2 sequence (looked up): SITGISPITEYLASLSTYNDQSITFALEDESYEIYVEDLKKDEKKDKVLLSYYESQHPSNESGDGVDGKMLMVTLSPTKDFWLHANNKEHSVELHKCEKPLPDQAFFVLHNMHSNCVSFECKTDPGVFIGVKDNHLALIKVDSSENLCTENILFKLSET

[3] = target: human IL-13 (human, UniProt P35225 35-146)
Chain of human IL-13 (P35225 35-146 limits assumed): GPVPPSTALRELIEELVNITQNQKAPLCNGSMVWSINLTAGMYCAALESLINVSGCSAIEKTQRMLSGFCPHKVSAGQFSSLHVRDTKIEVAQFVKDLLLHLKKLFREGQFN

[4] = target: T3, recombinant human IL-4 (human, UniProt P05112 25-153)
T3 sequence (looked up): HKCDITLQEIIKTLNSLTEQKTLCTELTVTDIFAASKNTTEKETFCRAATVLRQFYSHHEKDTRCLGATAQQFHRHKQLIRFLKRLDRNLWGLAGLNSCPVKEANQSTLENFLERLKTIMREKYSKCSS

[5] = target: T4, IL-33 mm2 (human, UniProt O95760 112-270, limits assumed)
T4 sequence (looked up): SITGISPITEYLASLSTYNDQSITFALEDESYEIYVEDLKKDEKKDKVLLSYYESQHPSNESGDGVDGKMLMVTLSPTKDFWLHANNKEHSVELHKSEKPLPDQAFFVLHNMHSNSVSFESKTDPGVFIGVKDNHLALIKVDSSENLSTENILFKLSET

[6] = target: recombinant human IL-13 (human, UniProt P35225 35-146)
Chain of recombinant human IL-13 (P35225 35-146 limits assumed): as the sequence (P35225 35-146 limits assumed) above

| Binder | a-hIL-4 bioassay IC50, pM) [1] [pM] | a-IL-33 bioassay (WT IL33) IC50 (pM) [2] [pM] | a-hIL-13 bioassay (IC50, pM) [3] [pM] | IL-4 Induced CD23 Expression, potency of cytokine neutralization [4] [nM] | IL-33 mm2 Cys Activation of SEAP Reporter Cells, potency of cytokine neutralization [5] [nM] | IL-13 Induced CD23 Expression, potency of cytokine neutralization [6] [nM] |
| --- | --- | --- | --- | --- | --- | --- |
| B1 | 16.5 | 12 | 7.58 |  |  |  |
| B2 |  |  |  | 0.0032 | 0.045 | 0.0125 |
| B3 |  |  |  | 0.0669 | 0.182 | 0.0203 |
